Source: patent publication US20120114647A1 (GlaxoSmithKline, published 2012)

T1: Cynomolgus monkey serum albumin (Cynomolgus monkey), A2V9Z4
T1 chain: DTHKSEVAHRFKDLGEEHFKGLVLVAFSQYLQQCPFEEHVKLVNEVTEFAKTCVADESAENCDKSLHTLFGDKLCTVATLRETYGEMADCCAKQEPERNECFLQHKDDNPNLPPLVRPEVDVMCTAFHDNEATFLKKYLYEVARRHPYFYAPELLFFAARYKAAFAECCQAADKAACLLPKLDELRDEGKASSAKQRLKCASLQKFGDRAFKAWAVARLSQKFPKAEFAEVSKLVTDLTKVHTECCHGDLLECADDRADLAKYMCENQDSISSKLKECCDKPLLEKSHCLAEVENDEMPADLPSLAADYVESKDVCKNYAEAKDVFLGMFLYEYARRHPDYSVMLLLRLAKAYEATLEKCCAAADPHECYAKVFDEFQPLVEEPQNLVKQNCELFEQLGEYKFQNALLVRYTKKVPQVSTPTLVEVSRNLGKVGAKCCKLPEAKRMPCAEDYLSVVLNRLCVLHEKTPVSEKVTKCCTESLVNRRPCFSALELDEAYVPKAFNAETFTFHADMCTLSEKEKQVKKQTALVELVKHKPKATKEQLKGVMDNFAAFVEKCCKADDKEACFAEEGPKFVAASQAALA


What was measured:
[1] = molecular target: T2, Cynomolgus monkey serum albumin (Cynomolgus monkey, UniProt A2V9Z4 25-608); assay: SPR (Biacore), cross-reactivity
T2 construct: also called CSA; cyno serum albumin

[2] = molecular target: T3, rat serum albumin (rat, UniProt P02770 25-608); assay: SPR (Biacore), cross-reactivity
T3 construct: also called RSA

[3] = molecular target: T4, mouse serum albumin (mouse, UniProt P07724 25-608); assay: SPR (Biacore), cross-reactivity
T4 construct: also called MSA

[4] = molecular target: T5, human serum albumin (human, UniProt P02768 25-609); assay: SPR (Biacore), cross-reactivity against four serum albumins
T5 construct: also called HSA; human SA

[5] = molecular target: T5, human serum albumin; assay: SPR (Biacore), cross-reactivity
[6] = molecular target: T5, human serum albumin; assay: SPR (BIAcore), eight-point dilution kinetics
[7] = molecular target: T2, Cynomolgus monkey serum albumin; assay: SPR (BIAcore), eight-point dilution kinetics
[8] = molecular target: T3, rat serum albumin; assay: SPR (BIAcore), eight-point dilution kinetics
[9] = molecular target: T4, mouse serum albumin; assay: SPR (BIAcore), eight-point dilution kinetics
[10] = molecular target: T1, Cynomolgus monkey serum albumin …; assay: SPR (BIAcore), eight-point dilution kinetics; settings: remark: other sources report otherwise

| Binder | binding result [1] | binding result [2] | binding result [3] | binding result [4] | binding result [5] | Kd [6] [nM] | Kd [7] [nM] | Kd [8] [nM] | Kd [9] [nM] | Kd [10] [nM] |
| --- | --- | --- | --- | --- | --- | --- | --- | --- | --- | --- |
| DOM7h-112 (VHH, human VH immunoglobulin single variable domain (dAb, AlbudAb), not camelid) VHH: EVQLLESGGGLVQPGGSLRLSCAASGFTFGGYVMGWVRQAPGKGLEWVSAINRFGSSTYYADSVKGRFTISRDNSKNTLYLQMNSLRAEDTAVYYCAKGSLRHFDYWGQGTLVTVSS | binds | binds | binds | no binding | – | – | – | – | – | – |
| DOM7r-29 (VHH, human VH dAb (AlbudAb)) VHH: EVQLLESGGGLVQPGGSLRLSCAASGFTFKDYDMTWVRQAPGKGLEWVSMISSSGLWTYYADSVKGRFTISRDNSKNTLYLQMNSLRAEDTAVYYCAKGFRLFPRTFDYWGQGTLVTVSS | binds | binds | binds | – | binds | – | – | – | – | – |
| DOM7r-92-4 (VHH) VHH: EVQLLESGGGLVQPGGSLRLSCAASGFTFDTSSMLWVRQAPGKGLEWVSVIHQSGTPTYYADSVKGRFTISRDNSKNTLYLQMNSLRAEDTAVYYCAKFPSTHGKFDYWGQGTLVTVSS | – | – | – | – | – | 130 | 98 | 260 | 110 | – |
| DOM7r-201 (VHH) VHH: EVQLLESGGGLVQPGGSLRLSCAASGFTFNHYTMGWVRQAPGKGLEWVSLIHPSGTVIYYADSVKGRFTISRDNSKNTLYLQMNSLRAEDTAVYYCAKWSSRAFDYWGQGTLVTVSS | – | – | – | – | – | 60 | 58 | 240 | 280 | – |
| DOM7r-36 (VHH, human VH dAb (AlbudAb)) VHH: EVQLLESGGGLVQPGGSLRLSCAASGFTFNHYTMGWVRQAPGKGLEWVSLIHPSGTVTYYADSVKGRFTISRDNSKNTLYLQMNSLRAEDTAVYYCAKWSSRAFDYWGQGTLVTVSS | binds | binds | binds | – | binds | – | – | – | – | – |
| DOM7r-36-2 (VHH) VHH: EVQLLESGGGLVQPGGSLRLSCAASGFTFNHYTMGWVRQAPGKGREWVSLIHPSGTVTYYADSVKGRFTISRDNSKNTLYLQMNSLRAEDTAVYYCAKWSSRAFDYWGQGTLVTVSS | – | – | – | – | – | 150 | 180 | 190 | 520 | – |
| DOM7r-36-8 (VHH) VHH: EVQLLESGGGLVQPGGSLRLSCAASGFTFNHYTMGWVRQAPGKGLEWVSLIHPSGTVIYYADSVKGRFTISRDNSKNTLYLQMNSLRAEDTAVYYCARWSSRAFDYWGQGTLVTVSS | – | – | – | – | – | 67 | 92 | 210 | 520 | – |
| DOM7r-31-14 (VHH) VHH: EVQLLESGGGLVQPGGSLRLSCTASGFTFRHYRMGWVRQAPGKGLEWVSWIRPDGTFTYYADSVKGRFTISRDNSKNTLYLQMNSLRAEDTAVYYCAKSYMADRFDYWGQGTLVTVSS | – | – | – | – | – | 58 | – | 46 | 6 | 31000 |
| DOM7r-31 (VHH, human VH dAb (AlbudAb)) VHH: EVQLLESGGGLVQPGGSLRLSCTASGFTFRHYRMGWVRQAPGKGLEWVSWIRPDGTFTYYADSVKGRFTISRDNSKNTLYLQMNSLRAEDTAVYYCAKSYMGDRFDYWGQGTLVTVSS | binds | binds | binds | – | binds | – | – | – | – | – |
| DOM7r-35 (VHH, human VH dAb (AlbudAb); propensity to dimerise by MALLS) VHH: EVQLLESGGGLVQPGGSLRLSCAASGFTFSLYRMVWVRQAPGKGLEWVSMISQFGNQTYYADSVKGRFTISRDNSKNTLYLQMNSLRAEDTAVYYCAKVRSWDQTGGRRTFDYWGQGTLVTVSS | binds | binds | binds | – | binds | – | – | – | – | – |
| DOM7h-98 (VHH, human VH dAb (AlbudAb)) VHH: EVQLLESGGGLVQPGGSLRLSCAASGFTFGNYAMAWVRQAPGKGLEWVSSIDMVGIKTYYADSVKGRFTISRDNSKNTLYLQMNSLRAEDTAVYYCAKGFRIFDYWGQGTLVTVSS | binds | binds | binds | – | binds | – | – | – | – | – |
| DOM7h-98-4 (VHH) VHH: EVQLLESGGGLVQPGGSLRLSCAASGFTFGNYAMAWVRQAPGKGLEWVSSIDMVGIKTYYADSVKGRFTNSRDNSKNTLYLQMNSLRAEDTAVYYCARGFRIFDYWGQGTLVTVSS | – | – | – | – | – | 2000 | 3600 | 580 | 810 | – |
| DOM7r-38 (VHH, human VH dAb (AlbudAb)) VHH: EVQLLESGGGLVQPGGSLRLSCAASGFTFDNNAMGWVRQAPGKGLEWVSTISANGNATYYADSVKGRFTISRDNSKDTLYLQMNSLRAEDTAVYYCAKGFRRFDYWGQGTLVTVSS | binds | binds | binds | – | binds | – | – | – | – | – |
